# Experimental data as given in publication PMC4960622, “Crystal structures of RidA, an important enzyme for the prevention of toxic side products” (Scientific Reports, 2016).
# B1: Arabidopsis thaliana RidA, construct starting from S68 (AtRidA-S68), wild type [Arabidopsis thaliana] / itself (parent)
# chain: STEKAPAALGPYSQAIKANNLVFLSGVLGLIPETGKFVSESVEDQTEQVLKNMGEILKASGADYSSVVKTTIMLADLADFKTVNEIYAKYFPAPSPARSTYQVAALPLNAKIEIECIATL
# Variants of: B1
# Assay: size-exclusion chromatography (Superdex-75)
# Conditions: with itself; 0.5 mg protein loaded; read off a plot
row,Variant,screen value [mL]
1,STEKAPAALGPYSQAIKANNLVFLSGVLGLIPETGKFVSESVEDQTEQVLKNMGEILKASGADYSSVVKTTIMLADLADFKTVNEIYAKYFPAPSPARATYQVAALPLNAKIEIECIATL [chain 1 S99A],11.6
2,STEKAPAALGPYSQAIKANNLVFLSGVLGLIPETGKFVSESVEDQTEQVLKNMGEILKASGADYSSVVRTTIMLADLADFKTVNEIYAKYFPAPSPARSTYQVAALPLNAKIEIECIATL [chain 1 K69R],11.4

# Other lines, results leading:
row,screen value [mL],Variant
1,11.4,STEKAPAALGPYAQAIKANNLVFLSGVLGLIPETGKFVSESVEDQTEQVLKNMGEILKASGADYSSVVKTTIMLADLADFKTVNEIYAKYFPAPSPARSTYQVAALPLNAKIEIECIATL [chain 1 S13A]
2,11.6,STEKAPAALGPYSQAIKANNLVFLSGVLGLIPETGKFVSESVEDQTEQVLKNMGEILKASGADYSSVVKTTIMLADLADFKTVNEIYAKYFPAPSPARSTYQVAALPLNAKIEIACIATL [chain 1 E115A]
3,12,STEKAPAALGPYSQAIKANNLVFLSGVLGLIPETGKFVSESVEDQTEQVLKNMGEILKASGADYSSVVATTIMLADLADFKTVNEIYAKYFPAPSPARSTYQVAALPLNAKIEIECIATL [chain 1 K69A]
